The source of these data is the Human Domainome abundance scans (Beltran et al. 2025).

± gives the uncertainty stated by the source.

The nature of the series: abundance fitness (aPCA) (normalised: wild type 0, dead -1); higher = more abundant; growth selection in yeast, the domain comes from the species named. Particulars: Homo sapiens.
In turn, “Scaffold attachment factor B1 D67G, Q15424” registered an abundance fitness of -0.131 ± 0.046.

In turn, “Scaffold attachment factor B1 D67H, Q15424” came in with an abundance fitness of -0.333 ± 0.051.

For “Scaffold attachment factor B1 D67I, Q15424”, the abundance fitness is -0.257 ± 0.079.

Consider “Scaffold attachment factor B1 D67K, Q15424”, for which the abundance fitness was -0.258 ± 0.091.

Turning to “Scaffold attachment factor B1 D67L, Q15424”, the abundance fitness was -0.278 ± 0.052.

In turn, “Scaffold attachment factor B1 D67M, Q15424” gave an abundance fitness of -0.167 ± 0.1.

“Scaffold attachment factor B1 D67N, Q15424” came in with an abundance fitness of -0.125 ± 0.091.

On to “Scaffold attachment factor B1 D67Q, Q15424”, for which the abundance fitness was -0.123 ± 0.077.

“Scaffold attachment factor B1 D67R, Q15424” had an abundance fitness of -0.168 ± 0.049.

Substance “Scaffold attachment factor B1 D67T, Q15424” registered an abundance fitness of -0.237 ± 0.071.

As to “Scaffold attachment factor B1 D67V, Q15424”, the abundance fitness was -0.19 ± 0.063.

As for “Scaffold attachment factor B1 D67W, Q15424”, the abundance fitness was -0.474 ± 0.048.

In turn, “Scaffold attachment factor B1 D67Y, Q15424” yielded an abundance fitness of -0.263 ± 0.13.

With “Scaffold attachment factor B1 D73A, Q15424”, the abundance fitness was -0.196 ± 0.065.

Substance “Scaffold attachment factor B1 D73C, Q15424” gave an abundance fitness of -0.206 ± 0.059.

With “Scaffold attachment factor B1 D73E, Q15424”, the abundance fitness is -0.072 ± 0.067.

In the case of “Scaffold attachment factor B1 D73F, Q15424”, the abundance fitness is -0.494 ± 0.085.

For the substance “Scaffold attachment factor B1 D73G, Q15424”, the abundance fitness was -0.124 ± 0.049.

“Scaffold attachment factor B1 D73H, Q15424” came in with an abundance fitness of -0.443 ± 0.098.

“Scaffold attachment factor B1 D73K, Q15424” came in with an abundance fitness of -0.652 ± 0.12.

The substance “Scaffold attachment factor B1 D73L, Q15424” displayed an abundance fitness of -0.245 ± 0.059.

Take “Scaffold attachment factor B1 D73M, Q15424”: the abundance fitness was -0.468 ± 0.1.

As for “Scaffold attachment factor B1 D73N, Q15424”, the abundance fitness is -0.091 ± 0.097.

On to “Scaffold attachment factor B1 D73P, Q15424”, for which the abundance fitness was -0.278 ± 0.068.

As for “Scaffold attachment factor B1 D73Q, Q15424”, the abundance fitness is -0.362 ± 0.11.

In turn, “Scaffold attachment factor B1 D73R, Q15424” had an abundance fitness of -0.288 ± 0.056.

In turn, “Scaffold attachment factor B1 D73S, Q15424” came in with an abundance fitness of -0.243 ± 0.061.

In turn, “Scaffold attachment factor B1 D73T, Q15424” gave an abundance fitness of -0.231 ± 0.056.

The substance “Scaffold attachment factor B1 D73V, Q15424” came in with an abundance fitness of -0.23 ± 0.053.

On to “Scaffold attachment factor B1 D73W, Q15424”, for which the abundance fitness was -0.513 ± 0.056.

Substance “Scaffold attachment factor B1 D73Y, Q15424” came in with an abundance fitness of -0.375 ± 0.073.

Consider “Scaffold attachment factor B1 E42C, Q15424”, for which the abundance fitness was -0.346 ± 0.063.

Take “Scaffold attachment factor B1 E42D, Q15424”: the abundance fitness is -0.881 ± 0.099.

“Scaffold attachment factor B1 E42F, Q15424” yielded an abundance fitness of -0.587 ± 0.076.

For “Scaffold attachment factor B1 E42H, Q15424”, the abundance fitness is -0.686 ± 0.12.

Consider “Scaffold attachment factor B1 E42I, Q15424”, for which the abundance fitness is -0.422 ± 0.057.

Take “Scaffold attachment factor B1 E42K, Q15424”: the abundance fitness is -0.852 ± 0.1.

For “Scaffold attachment factor B1 E42L, Q15424”, the abundance fitness is -0.188 ± 0.061.

In turn, “Scaffold attachment factor B1 E42M, Q15424” registered an abundance fitness of -0.15 ± 0.074.

The substance “Scaffold attachment factor B1 E42N, Q15424” had an abundance fitness of -0.736 ± 0.11.

“Scaffold attachment factor B1 E42P, Q15424” displayed an abundance fitness of -0.976 ± 0.18.

In turn, “Scaffold attachment factor B1 E42Q, Q15424” had an abundance fitness of -0.26 ± 0.083.

Consider “Scaffold attachment factor B1 E42R, Q15424”, for which the abundance fitness is -0.903 ± 0.053.

“Scaffold attachment factor B1 E42S, Q15424” showed an abundance fitness of -0.605 ± 0.056.

As for “Scaffold attachment factor B1 E42T, Q15424”, the abundance fitness is -0.776 ± 0.076.

The substance “Scaffold attachment factor B1 E42V, Q15424” gave an abundance fitness of -0.53 ± 0.053.

As to “Scaffold attachment factor B1 E42Y, Q15424”, the abundance fitness is -0.619 ± 0.1.

Substance “Scaffold attachment factor B1 E59D, Q15424” yielded an abundance fitness of -0.15 ± 0.074.

Turning to “Scaffold attachment factor B1 E59F, Q15424”, the abundance fitness was -0.637 ± 0.071.

For the substance “Scaffold attachment factor B1 E59G, Q15424”, the abundance fitness is -0.153 ± 0.076.

Consider “Scaffold attachment factor B1 E59H, Q15424”, for which the abundance fitness is -0.087 ± 0.063.

The substance “Scaffold attachment factor B1 E59I, Q15424” yielded an abundance fitness of -0.071 ± 0.067.

“Scaffold attachment factor B1 E59K, Q15424” returned an abundance fitness of -0.152 ± 0.084.

As for “Scaffold attachment factor B1 E59L, Q15424”, the abundance fitness was -0.15 ± 0.052.

“Scaffold attachment factor B1 E59M, Q15424” came in with an abundance fitness of -0.131 ± 0.064.

“Scaffold attachment factor B1 E59N, Q15424” came in with an abundance fitness of -0.131 ± 0.065.

The substance “Scaffold attachment factor B1 E59Q, Q15424” came in with an abundance fitness of -0.19 ± 0.096.

Take “Scaffold attachment factor B1 E59R, Q15424”: the abundance fitness is -0.078 ± 0.074.

“Scaffold attachment factor B1 E59S, Q15424” yielded an abundance fitness of -0.111 ± 0.051.

Substance “Scaffold attachment factor B1 E59T, Q15424” gave an abundance fitness of -0.082 ± 0.053.

For the substance “Scaffold attachment factor B1 E59V, Q15424”, the abundance fitness was -0.125 ± 0.046.

The substance “Scaffold attachment factor B1 E59W, Q15424” had an abundance fitness of -0.408 ± 0.11.

In turn, “Scaffold attachment factor B1 E59Y, Q15424” displayed an abundance fitness of -0.343 ± 0.095.

Take “Scaffold attachment factor B1 E66C, Q15424”: the abundance fitness was -0.284 ± 0.069.

Substance “Scaffold attachment factor B1 E66F, Q15424” had an abundance fitness of -0.256 ± 0.061.

The substance “Scaffold attachment factor B1 E66G, Q15424” yielded an abundance fitness of -0.218 ± 0.052.

In the case of “Scaffold attachment factor B1 E66H, Q15424”, the abundance fitness is -0.49 ± 0.075.

In the case of “Scaffold attachment factor B1 E66I, Q15424”, the abundance fitness was -0.261 ± 0.058.

With “Scaffold attachment factor B1 E66K, Q15424”, the abundance fitness was -0.169 ± 0.082.

As for “Scaffold attachment factor B1 E66L, Q15424”, the abundance fitness was -0.133 ± 0.051.

As for “Scaffold attachment factor B1 E66M, Q15424”, the abundance fitness was -0.137 ± 0.046.

Substance “Scaffold attachment factor B1 E66N, Q15424” gave an abundance fitness of -0.202 ± 0.075.

For “Scaffold attachment factor B1 E66P, Q15424”, the abundance fitness is -0.909 ± 0.097.

For the substance “Scaffold attachment factor B1 E66Q, Q15424”, the abundance fitness is -0.014 ± 0.078.

In turn, “Scaffold attachment factor B1 E66R, Q15424” yielded an abundance fitness of -0.202 ± 0.047.

Substance “Scaffold attachment factor B1 E66S, Q15424” showed an abundance fitness of -0.164 ± 0.056.

The substance “Scaffold attachment factor B1 E66T, Q15424” gave an abundance fitness of -0.11 ± 0.076.

As for “Scaffold attachment factor B1 E66V, Q15424”, the abundance fitness was -0.244 ± 0.05.

As to “Scaffold attachment factor B1 E66W, Q15424”, the abundance fitness is -0.43 ± 0.059.

Take “Scaffold attachment factor B1 E66Y, Q15424”: the abundance fitness is -0.288 ± 0.075.

As for “Scaffold attachment factor B1 E68A, Q15424”, the abundance fitness was -0.233 ± 0.05.

On to “Scaffold attachment factor B1 E68C, Q15424”, for which the abundance fitness was -0.586 ± 0.056.

Substance “Scaffold attachment factor B1 E68D, Q15424” gave an abundance fitness of -0.224 ± 0.073.

The substance “Scaffold attachment factor B1 E68G, Q15424” had an abundance fitness of -0.289 ± 0.045.

Substance “Scaffold attachment factor B1 E68H, Q15424” came in with an abundance fitness of -0.359 ± 0.057.

In the case of “Scaffold attachment factor B1 E68I, Q15424”, the abundance fitness was -0.469 ± 0.05.

As to “Scaffold attachment factor B1 E68K, Q15424”, the abundance fitness is -0.352 ± 0.07.

With “Scaffold attachment factor B1 E68M, Q15424”, the abundance fitness was -0.461 ± 0.054.

With “Scaffold attachment factor B1 E68N, Q15424”, the abundance fitness was -0.346 ± 0.056.

“Scaffold attachment factor B1 E68P, Q15424”: the abundance fitness was -0.802 ± 0.051.

“Scaffold attachment factor B1 E68Q, Q15424” had an abundance fitness of -0.279 ± 0.049.

In turn, “Scaffold attachment factor B1 E68R, Q15424” returned an abundance fitness of -0.341 ± 0.051.

Substance “Scaffold attachment factor B1 E68S, Q15424” displayed an abundance fitness of -0.236 ± 0.052.

As to “Scaffold attachment factor B1 E68T, Q15424”, the abundance fitness is -0.314 ± 0.054.

“Scaffold attachment factor B1 E68V, Q15424” showed an abundance fitness of -0.265 ± 0.053.

For the substance “Scaffold attachment factor B1 E68W, Q15424”, the abundance fitness is -0.836 ± 0.07.
